Measurements as given in patent publication US12692303 (QYUNS THERAPEUTICS, dated 2026).

T1: Natural IL-23 (human, UniProt Q9NPF7 20-189; P29460 23-328)
T1 construct: It was detected with an anti-His antibody, so it carries a His tag
T1 sequence 1: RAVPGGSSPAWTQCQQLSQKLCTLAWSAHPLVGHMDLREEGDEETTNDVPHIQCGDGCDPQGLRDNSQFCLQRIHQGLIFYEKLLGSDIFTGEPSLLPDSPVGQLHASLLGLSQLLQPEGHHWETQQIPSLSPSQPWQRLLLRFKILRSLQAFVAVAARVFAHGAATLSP
T1 sequence 2: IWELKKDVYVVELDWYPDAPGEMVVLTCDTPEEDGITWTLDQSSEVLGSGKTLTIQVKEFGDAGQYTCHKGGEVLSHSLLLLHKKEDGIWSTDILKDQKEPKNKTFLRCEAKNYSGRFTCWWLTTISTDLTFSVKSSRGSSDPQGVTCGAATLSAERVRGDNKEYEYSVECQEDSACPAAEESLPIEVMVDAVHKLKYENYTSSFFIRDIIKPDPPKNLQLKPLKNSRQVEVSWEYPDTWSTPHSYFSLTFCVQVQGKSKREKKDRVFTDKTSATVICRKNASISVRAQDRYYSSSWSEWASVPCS

T2: IL-23 mutant R143A (human, UniProt Q9NPF7 20-189; P29460 23-328)
T2 construct: 293F cell supernatant
T2 chain 1: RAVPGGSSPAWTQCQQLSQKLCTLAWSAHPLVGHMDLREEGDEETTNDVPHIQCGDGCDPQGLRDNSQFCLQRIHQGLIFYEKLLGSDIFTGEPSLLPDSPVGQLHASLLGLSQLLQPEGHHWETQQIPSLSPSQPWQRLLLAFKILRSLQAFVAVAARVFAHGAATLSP
T2 chain 2: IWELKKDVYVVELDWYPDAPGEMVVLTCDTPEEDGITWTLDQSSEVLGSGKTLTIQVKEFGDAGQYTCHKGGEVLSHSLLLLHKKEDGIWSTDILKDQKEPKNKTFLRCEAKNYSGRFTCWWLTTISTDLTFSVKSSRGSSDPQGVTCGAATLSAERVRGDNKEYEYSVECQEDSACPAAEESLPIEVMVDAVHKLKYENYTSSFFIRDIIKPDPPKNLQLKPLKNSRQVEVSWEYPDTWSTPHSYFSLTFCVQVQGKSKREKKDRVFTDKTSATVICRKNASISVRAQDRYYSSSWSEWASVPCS

T3: IL-23 mutant W137A (human, UniProt Q9NPF7 20-189; P29460 23-328)
T3 construct: p19 mutant plasmid co-transfected with p40 plasmid into 293F cells; used as cell supernatant
T3 chain 1: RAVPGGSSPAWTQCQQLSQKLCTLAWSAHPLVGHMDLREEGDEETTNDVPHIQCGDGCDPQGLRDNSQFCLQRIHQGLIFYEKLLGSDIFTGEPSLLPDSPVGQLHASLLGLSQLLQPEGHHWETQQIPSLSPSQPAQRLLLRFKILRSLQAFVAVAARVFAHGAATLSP
T3 chain 2: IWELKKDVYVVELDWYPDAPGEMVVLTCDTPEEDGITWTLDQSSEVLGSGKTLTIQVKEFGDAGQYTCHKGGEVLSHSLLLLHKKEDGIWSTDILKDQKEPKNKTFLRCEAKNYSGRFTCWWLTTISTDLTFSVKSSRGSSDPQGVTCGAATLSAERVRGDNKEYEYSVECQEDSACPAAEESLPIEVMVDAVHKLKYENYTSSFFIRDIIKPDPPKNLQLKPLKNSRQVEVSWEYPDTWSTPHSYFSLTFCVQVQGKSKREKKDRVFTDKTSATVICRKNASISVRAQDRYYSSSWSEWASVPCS

T4: IL-23 mutant W137D (human, UniProt Q9NPF7 20-189; P29460 23-328)
T4 construct: 293F cell supernatant
T4 chain 1: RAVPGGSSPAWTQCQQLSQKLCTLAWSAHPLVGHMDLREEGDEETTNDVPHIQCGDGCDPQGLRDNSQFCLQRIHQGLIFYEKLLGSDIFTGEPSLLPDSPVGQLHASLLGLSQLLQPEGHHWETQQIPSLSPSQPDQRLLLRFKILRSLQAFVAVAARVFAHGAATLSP
T4 chain 2: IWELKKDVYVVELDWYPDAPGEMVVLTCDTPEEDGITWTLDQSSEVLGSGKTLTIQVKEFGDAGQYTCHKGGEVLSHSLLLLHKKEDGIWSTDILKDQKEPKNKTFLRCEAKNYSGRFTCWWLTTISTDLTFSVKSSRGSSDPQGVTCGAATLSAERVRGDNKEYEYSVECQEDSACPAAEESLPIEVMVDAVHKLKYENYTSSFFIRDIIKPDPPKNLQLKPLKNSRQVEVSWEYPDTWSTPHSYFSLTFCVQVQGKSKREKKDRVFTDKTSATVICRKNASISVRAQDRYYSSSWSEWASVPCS

T5: Human interleukin 23 (hIL-23) (human, UniProt Q9NPF7 20-189; P29460 23-328)
T5 sequence 1: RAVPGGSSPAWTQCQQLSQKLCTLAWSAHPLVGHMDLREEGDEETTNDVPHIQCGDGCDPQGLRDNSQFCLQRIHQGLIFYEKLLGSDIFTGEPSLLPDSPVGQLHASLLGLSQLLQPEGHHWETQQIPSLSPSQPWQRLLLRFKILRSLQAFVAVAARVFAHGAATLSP
T5 sequence 2: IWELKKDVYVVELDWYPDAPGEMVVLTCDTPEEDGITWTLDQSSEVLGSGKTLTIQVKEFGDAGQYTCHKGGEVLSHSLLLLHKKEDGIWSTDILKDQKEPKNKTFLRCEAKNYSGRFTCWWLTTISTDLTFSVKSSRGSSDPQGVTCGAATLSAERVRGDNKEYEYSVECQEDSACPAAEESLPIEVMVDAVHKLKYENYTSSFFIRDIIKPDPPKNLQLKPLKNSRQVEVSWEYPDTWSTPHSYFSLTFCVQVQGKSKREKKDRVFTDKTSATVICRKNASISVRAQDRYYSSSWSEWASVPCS

T6: IL-23-p40 (human, UniProt P29460 23-328)
T6 construct: also called p40 subunit of IL-23; IL-12/IL-23p40
T6 sequence: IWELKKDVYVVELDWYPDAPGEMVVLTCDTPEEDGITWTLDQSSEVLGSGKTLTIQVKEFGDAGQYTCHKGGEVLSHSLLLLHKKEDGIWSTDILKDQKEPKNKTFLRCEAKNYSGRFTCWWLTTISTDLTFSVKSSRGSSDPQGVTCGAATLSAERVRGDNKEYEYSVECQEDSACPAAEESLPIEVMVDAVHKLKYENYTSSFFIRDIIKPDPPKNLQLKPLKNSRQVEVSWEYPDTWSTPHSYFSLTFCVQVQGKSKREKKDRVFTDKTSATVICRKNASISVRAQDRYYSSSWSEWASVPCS

T7: IL-23 mutant F144S (human, UniProt Q9NPF7 20-189; P29460 23-328)
T7 construct: 293F cell supernatant
T7 chain 1: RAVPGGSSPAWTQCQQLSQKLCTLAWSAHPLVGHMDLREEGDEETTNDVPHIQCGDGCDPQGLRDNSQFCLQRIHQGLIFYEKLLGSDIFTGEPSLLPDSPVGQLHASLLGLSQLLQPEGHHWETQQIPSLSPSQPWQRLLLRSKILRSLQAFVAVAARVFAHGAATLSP
T7 chain 2: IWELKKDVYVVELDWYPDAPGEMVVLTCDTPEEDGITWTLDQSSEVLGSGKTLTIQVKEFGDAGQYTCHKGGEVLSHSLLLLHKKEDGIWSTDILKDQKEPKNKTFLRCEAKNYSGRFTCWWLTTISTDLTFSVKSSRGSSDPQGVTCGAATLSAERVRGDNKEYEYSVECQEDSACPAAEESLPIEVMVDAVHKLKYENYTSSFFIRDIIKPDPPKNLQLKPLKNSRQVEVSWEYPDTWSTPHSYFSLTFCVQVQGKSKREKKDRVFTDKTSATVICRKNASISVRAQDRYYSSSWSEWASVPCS

T8: IL-23 mutant L140P (human, UniProt Q9NPF7 20-189; P29460 23-328)
T8 construct: 293F cell supernatant
T8 chain 1: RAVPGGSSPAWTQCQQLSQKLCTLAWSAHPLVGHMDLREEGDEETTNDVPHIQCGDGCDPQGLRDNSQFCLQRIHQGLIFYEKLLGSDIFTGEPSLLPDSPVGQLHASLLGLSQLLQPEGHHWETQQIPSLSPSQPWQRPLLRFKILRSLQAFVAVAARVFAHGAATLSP
T8 chain 2: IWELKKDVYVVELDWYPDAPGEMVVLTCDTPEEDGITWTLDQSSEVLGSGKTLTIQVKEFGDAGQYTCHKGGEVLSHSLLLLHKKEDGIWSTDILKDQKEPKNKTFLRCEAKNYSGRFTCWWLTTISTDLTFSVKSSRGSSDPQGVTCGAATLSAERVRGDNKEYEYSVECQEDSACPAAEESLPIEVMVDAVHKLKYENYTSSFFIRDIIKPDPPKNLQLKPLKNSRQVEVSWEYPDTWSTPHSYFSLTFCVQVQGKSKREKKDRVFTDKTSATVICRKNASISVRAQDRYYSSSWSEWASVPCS


Tests used:
Natural IL-23 = target: T1, Natural IL-23; experiment: binding ELISA, antibody coated at 1 µg/ml, IL-23 titrated, anti-His detection
IL-23 mutant R143A = target: T2, IL-23 mutant R143A; experiment: binding ELISA, antibody coated at 1 µg/ml, IL-23 mutant supernatant titrated, anti-His detection
Procedure: (§1) Mutation primers were designed through PCR method. The p19 mutant plasmid was co-transfected with p40 plasmid into 293F cells to prepare a cell supernatant containing the IL-23 mutant.
(§2) After blocking, a series of cell supernatant dilutions of IL-23 mutant diluted to a concentration ranging from 0 to 0.5 μg/ml for incubation. Then, Biotin labeled anti-His antibody and SA-HRP were added respectively for incubation, finally the substrate was added for color development, and the termination solution was added to terminate the color reaction. After termination, the ELISA plate was placed in a microplate reader to read the absorption value at 450 nm (the absorption values at 650 nm was taken as reference), and the dose effect curve was plotted and the $EC50$ value was calculated.

IL-23 mutant W137A = target: T3, IL-23 mutant W137A; experiment: as above
Procedure: as §1, §2

IL-23 mutant W137D = target: T4, IL-23 mutant W137D; experiment: as above
Procedure: as §1, §2

[1] = target: T5, Human interleukin 23 (hIL-23); experiment: cell-based or functional assay
IL-23-p40 = target: T6, IL-23-p40; experiment: Binding ELISA: IL-23-p40 coated at 2 ug/ml, goat anti-human IgG secondary antibody, OD450 (reference 650 nm)
Procedure: IL-23-p40 was diluted to 2 μg/ml, added to the ELISA plate, and coated overnight at 4° C. After blocking, a series of antibody dilutions diluted to a concentration ranging from 0 to 5 μg/ml and Goat-anti-human IgG secondary antibody were added respectively for incubation, finally substrate was added for color development, and the termination solution was added to terminate the color reaction. After termination, the ELISA plate was placed in a microplate reader to read the absorption value at 450 nm (the absorption value at 650 nm was taken as reference), and the dose effect curve was plotted to analyze the binding specificity of the antibody.

[2] = target: T5, Human interleukin 23 (hIL-23); experiment: SPR, Biacore T200, antibody captured on Protein A chip, IL-23 in flow, 25 °C, 1:1 model
Procedure: Commercialized Protein A chip was used to immobilize an appropriate amount of antibody by capture method, the Rmax was about 50 RU and the capture flow rate was 10 μl/min. The antigen was diluted by gradient, and the flow rate of the instrument was switched to 30 μl/min. The diluted antigen flowed through the reference channel and the channel of immobilized antibody in sequence from low to high concentration, and flowed through the buffer as negative control. The chip was regenerated with glycine at pH 1.5 after each binding and dissociation. Fitting was performed with the 1:1 binding model in the Kinetics option using the build-in software in the instrument, and the association rate constant k_a, dissociation rate constant […] and equilibrium dissociation constant K_D of the antibody were calculated.

IL-23 mutant F144S [3] = target: T7, IL-23 mutant F144S; experiment: binding ELISA, antibody coated at 1 µg/ml, IL-23 mutant supernatant titrated; N.D: the binding is weak, and the EC50 value is not accurate
Procedure: as §1, §2

IL-23 mutant L140P [4] = target: T8, IL-23 mutant L140P; experiment: as above
Procedure: as §1, §2

IL-23 mutant F144S [5] = target: T7, IL-23 mutant F144S; experiment: binding ELISA, antibody coated at 1 µg/ml, IL-23 mutant supernatant titrated, anti-His detection
Procedure: as §1, §2

IL-23 mutant L140P [6] = target: T8, IL-23 mutant L140P; experiment: as above
Procedure: as §1, §2

EC50 (Natural IL-23) [µg/mL]	EC50 (IL-23 mutant R143A) [µg/mL]	EC50 (IL-23 mutant W137A) [µg/mL]	EC50 (IL-23 mutant W137D) [µg/mL]	IC50, inhibition of phosphorylation of STAT3 in HEK Blue IL-23 cells induced by IL-23 [1] [µg/mL]	IC50, inhibition of release of IFN-γ from human NK cells induced by IL-23 [1] [µg/mL]	IC50, inhibition of release of IL-17A from mouse spleen cells induced by IL-23 [1] [µg/mL]	binding result (IL-23-p40)	Kd [2] [nM]	koff [2] [s⁻¹]	kon [2] [M⁻¹ s⁻¹]	binding result (IL-23 mutant F144S [3])	binding result (IL-23 mutant L140P [4])	EC50 (IL-23 mutant F144S [5]) [µg/mL]	EC50 (IL-23 mutant L140P [6]) [µg/mL]	Binder
0.0017	0.0034	0.0501	0.363	0.00321	0.0104	0.0117	no binding	0.101	3.5e-05	366000	binds	binds	–	–	QX004N (HZD90-32) (antibody, human IgG1, kappa, V domains shown, Expressed in ExpiCHO-S cells, purified on Protein A; also called humanized clone 90#; 90VH-Hu18/90VK-Hu9) VH: EVQLVESGGGLVQPGGSLRLSCAASGFSLSNHEMSWVRQAPGKGLEWIGIITTSDTTYYATWAKGRFTISRDNSKNTLYLQMNSLRAEDTAVYYCARVDIVLLSVTSRIWGQGTLVTVSS VL: DVVMTQSPSSLSASVGDRVTITCQASQSVSTYLSWYQQKPGKAPKLLIYGASNLESGVPSRFSGSGSGTDFTLTISSLQPEDFATYYCQSGYVFAGLTFGGGTKVEIKR
–	0.307	0.0023	0.0052	–	–	–	–	–	–	–	–	–	0.0101	0.0544	Risankizumab (antibody, V domains shown) VH: QVQLVQSGAEVKKPGSSVKVSCKASGYTFTDQTIHWMRQAPGQGLEWIGYIYPRDDSPKYNENFKGKVTITADKSTSTAYMELSSLRSEDTAVYYCAIPDRSGYAWFIYWGQGTLVTVSS VL: DIQMTQSPSSLSASVGDRVTITCKASRDVAIAVAWYQQKPGKVPKLLIYWASTRHTGVPSRFSGSGSRTDFTLTISSLQPEDVADYFCHQYSSYPFTFGSGTKLEIKR
